Changes are numbered by the printed parent chain.

T1: human CD30 expressed on the cell surface (human, UniProt P28908 19-595)
T1 chain: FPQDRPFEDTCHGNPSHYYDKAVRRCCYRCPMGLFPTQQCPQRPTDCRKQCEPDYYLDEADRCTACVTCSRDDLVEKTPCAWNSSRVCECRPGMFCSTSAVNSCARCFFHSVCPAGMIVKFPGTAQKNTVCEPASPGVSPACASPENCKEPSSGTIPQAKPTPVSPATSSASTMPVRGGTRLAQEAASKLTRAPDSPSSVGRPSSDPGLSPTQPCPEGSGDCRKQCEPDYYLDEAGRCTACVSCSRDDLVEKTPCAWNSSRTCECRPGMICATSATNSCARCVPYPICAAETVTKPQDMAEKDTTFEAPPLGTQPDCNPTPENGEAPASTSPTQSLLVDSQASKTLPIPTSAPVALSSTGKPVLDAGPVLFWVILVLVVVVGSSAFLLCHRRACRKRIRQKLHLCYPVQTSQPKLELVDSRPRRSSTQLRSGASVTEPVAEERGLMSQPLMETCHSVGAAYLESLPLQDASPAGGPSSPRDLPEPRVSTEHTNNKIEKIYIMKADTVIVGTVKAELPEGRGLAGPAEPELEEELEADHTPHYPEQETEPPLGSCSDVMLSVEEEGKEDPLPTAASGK

B1: 13H1 (antibody, V domains shown)
VH: QVQLQQSGTELVKPGASVKLSCKASGHTFTSYWMHWVKQRPGQGLEWIGNINPSNGGTNYNEKFKSKATLTVDKSSSTAYMQLSSLTSEDSAVYYCARRGYYGSSSYWSFDVWGTGTTVTVSS
VL: DIVMTQTPKSMSMSVGERVTLSCKASENVGTYVSWYQQKPEQSPKVLIYGASNRFTGVPDRFTGSGSATDFTLTISSVQTEDLADYHCGQSYSYPLTFGAGTKLELK
B2: 12B1 (antibody, V domains shown)
VH: EVKLEESGTELVKPGASVKLSCKASGYTFTSYWMHWVKQRPGQGLEWIGNINPTNGGTNYNEKFKSKATLTVDKSSRTAYMQLSSLTSGDSAVYYCARRDFITTSGFAYWGQGTLVTVSA
VL: DIVMTQTTASLSTSVGETVTITCRASGNLHSYLTWYQQKQGKSPQLLVYNAKTLADGVPSRFSGSGSGTQYSLKIDSLQPEDFGSYYCQHFWTTPFTFGSGTKLEIK
B3: 15B8 (antibody, V domains shown)
VH: QVQLEQSGTELVKPGASVKLSCKASGYTFTSYWMHWVKQRPGQGLEWIGNINPSNGGTNYNEKFKSKATLTVDKSSSTAYMQLSSLTSEDSAIYYCARRNNYYASSPFAYWGQGTLVSVSA
VL: B2 VL with T8P, T13A, L29I, S31N, T34A, D76N, T93S
B4: 8D10 (antibody, V domains shown)
VH: QVQLQESGTELVKPGASVKLSCKASGYTFTSYWMHWMKQRPGQGLEWIGNINPSNGGTNYNEKFKNKATLTVDKSSSTAYMQLSSLTSEDSAVYYCARRDYYYGSSYGFDVWGTGTTVTVSS
VL: DIVMTQSPASQSASLGESVTITCLASQTIGTWLAWYQQKPGKSPQFLIYAATSLADGVPSRFSGSGSGTKFSFKISSLQAEDFVSYYCQQLYSTPFTFGGGTKLEIK
B5: 10C2 (antibody, V domains shown)
VH: QVQLEQSGPVLVKPGASVKMSCKASGYTFTDYYMNWVKQSHGKSLEWIGVINPYNGGTSYNQKFKGKATLTVDKSSSTACMELNCLTSEDSAVYYCTLGAYWGQGTSVTVSS
VL: not shown

The first test deals with T1, human CD30 expressed on the cell surface. The test is described as follows: SPR; CD30 immobilized on CM5 chip, antibody as analyte.
For orientation: Kd means the concentration at which binding is half-saturated. Read a high Kd as a looser complex. For the molecule B1, the Kd turned out to be 0.149 nM. In other words, the sub-nanomolar range.
In turn, B2 registered a Kd of 0.199 nM.
B3 had a Kd of 0.978 nM.
For the molecule B4, binding was put at a Kd of 0.0592 nM.
Molecule B5 displayed a Kd of 0.607 nM.

The target is the same in another test. The description is as above. This is another data set of the same source.
B1 returned a Ka of 6.7e+09 M⁻¹.
In turn, B2 gave a Ka of 5.02e+09 M⁻¹.
B3 gave a Ka of 1.02e+09 M⁻¹.
For the molecule B4, the Ka was 1.69e+10 M⁻¹.
With B5, the Ka is 1.65e+09 M⁻¹.

The next test shares this target. The test is described as follows: SPR; antibody immobilized on Protein G chip, CD30 as analyte. Background: SPR reads the build-up and loss of mass on a sensor chip optically.
Turning to B4, the Kd was 1.14 nM.
The same measure, in the same setting: for B5 the value was 1.76 nM.

Values taken from US20250277050A1 (published 2025).
